According to patent US20250340857A1 (SEISMIC THERAPEUTIC, published 2025):

Molecular target: Human IgE antibody (human)
Assay: cell-based or functional assay

Binder | EC50 CE-SDS IgE | EC50 MSD IgE
FP2 (Fc fusion) DKTHTCPPCPAPEAAGAPSVFLFPPKPKDTLMISRTPEVTCVVVDVSHEDPEVKFNWYVDGVEVHNAKTKPREEQQNSTYRVVSVLTVLHQDWLNGKEYKCKVSNKALKAPIEKTISKAKGQPREPQVYTLPPSRDELTKNQVSLTCLVKGFYPSDIAVEWESNGQPENNYKTTPPVLDSDGSFFLYSKLTVDKSRWQQGNVFSCSVMHEALHNHYTQKSLSLSPGGGGSGGGGSGGGGSTALGRRKAEDRIKETLWADGVKIDEKDFEHIKSSHEDYFAVEYGKGSGYYDVNKKMDSEDTALCVGAVVTNMFHWWVDQNRENIEKFKKQDPENNGVMKFNGVKEATVDELNHFYKEYQSNKYADQSRFFDLIKKHFGNKALNPEELFELYFNGFYYNSSHRYIEDNKPAQNNLFSKVLENNKLLNPERSYGIDGFSNNVINALKSHKVLGLVHTTPLRYRHIISMWGADIDQDGKVKAIYVTDSDDREITFNDNSKRRIGMIRYDVLVDDNGNIRFTGKGATHKEEGAIYAGLYSLSRGDEVWEDYFKKYPEVQENL | 212 nM | 140 nM
FP6 (Fc fusion) DKTHTCPPCPAPEAAGAPSVFLFPPKPKDTLMISRTPEVTCVVVDVSHEDPEVKFNWYVDGVEVHNAKTKPREEQQNSTYRVVSVLTVLHQDWLNGKEYKCKVSNKALKAPIEKTISKAKGQPREPQVYTLPPSRDELTKNQVSLTCLVKGFYPSDIAVEWESNGQPENNYKTTPPVLDSDGSFFLYSKLTVDKSRWQQGNVFSCSVMHEALHNHYTQKSLSLSPGGGGSGGGGSGGGGSTALGRRKAEDRIKETLWADGVKIDEKDFEHIKSSHEDYFAVEYGKGSGYYDVNKKMDSEDTALCVGAVVTNMFHWWVDQNRENIEKFKKQDPENNGVMKFEGVKEATVDELNHFYKEYQSNKYADQSRFFDLIKKHFGNKALNPEELFELYFNGFYYQSSHRYIEDNEPAQNNLFSKVLENNKLLNPERSYGIDGFSNNVINALKSHKVLGLVHTTPLTYRHIISMWGADIDQDGKVKAIYVTDSDDREITFNDNSKRRIGMIRYDVLVDDNGNIRFTGKGATHKEEGAIYAGLYSLSRGDEVWEDYFKKYPEVQENL | – | 99.4 nM
FP3 (Fc fusion) DKTHTCPPCPAPEAAGAPSVFLFPPKPKDTLMISRTPEVTCVVVDVSHEDPEVKFNWYVDGVEVHNAKTKPREEQQNSTYRVVSVLTVLHQDWLNGKEYKCKVSNKALKAPIEKTISKAKGQPREPQVYTLPPSRDELTKNQVSLTCLVKGFYPSDIAVEWESNGQPENNYKTTPPVLDSDGSFFLYSKLTVDKSRWQQGNVFSCSVMHEALHNHYTQKSLSLSPGGGGSGGGGSGGGGSTALGRRKAEDRIKETLWADGVKIDEKDFEHIKSSHEDYFAVEYGKGSGYYDVNKKMDSEDTALCVGAVVTNMFHWWVDQNRENIEKFKKQDPENNGVMKFNGVKEATVDELNHFYKEYQSNKYADQSRFFDLIKKHFGNKALNPEELFELYFNGFYYQSSHRYIEDNKPAQNNLFSKVLENNKLLNPERSYGIDGFSNNVINALKSHKVLGLVHTTPLRYRHIISMWGADIDQDGKVKAIYVTDSDDREITFNDNSKRRIGMIRYDVLVDDNGNIRFTGKGATHKEEGAIYAGLYSLSRGDEVWEDYFKKYPEVQENL | 71.5 nM | 114 nM
FP11 (Fc fusion) DKTHTCPPCPAPEAAGAPSVFLFPPKPKDTLMISRTPEVTCVVVDVSHEDPEVKFNWYVDGVEVHNAKTKPREEQQNSTYRVVSVLTVLHQDWLNGKEYKCKVSNKALKAPIEKTISKAKGQPREPQVYTLPPSRDELTKNQVSLTCLVKGFYPSDIAVEWESNGQPENNYKTTPPVLDSDGSFFLYSKLTVDKSRWQQGNVFSCSVMHEALHNHYTQKSLSLSPGGGGSGGGGSGGGGSTALGRRKAEDRIKETLWADGVKIDEKDFEHIKSSHEDYFAVEYGKGSGYYDVNKKMDSEDTALCVGAVVTNMFHWWVDQNRENIEKFKKQDPENNGVMKFEGVKEATVDELNHFYRDNRDNYADQSRFFDLIKKHFGNKALNPEELFELYFNGFYYGSSHRYIEDNEPAQNNLFSKVLENNKLLNPERSYGIDGFSNNVINALKSHKVLGLVHTTPLRYRHIISMWGADIDQDGKVKAIYVTDSDDREITFNDNSKRRIGMIRYDVLVDDNGNIRFTGKGATHKEEGAIYAGLYSLSRGDEVWEDYFKKYPEVQENL | 68.5 nM | –
FP12 (Fc fusion) DKTHTCPPCPAPEAAGAPSVFLFPPKPKDTLMISRTPEVTCVVVDVSHEDPEVKFNWYVDGVEVHNAKTKPREEQQNSTYRVVSVLTVLHQDWLNGKEYKCKVSNKALKAPIEKTISKAKGQPREPQVYTLPPSRDELTKNQVSLTCLVKGFYPSDIAVEWESNGQPENNYKTTPPVLDSDGSFFLYSKLTVDKSRWQQGNVFSCSVMHEALHNHYTQKSLSLSPGGGGSGGGGSGGGGSTALGRRKAEDRIKETLWADGVKIDEKDFEHIKSSHEDYFAVEYGKGSGYYDVNKKMDSEDTALCVGAVVTNMFHWWVDQNRENIEKFKKQDPENNGVMKFEGVKEATVDELNHFYRDNRDNYADQSRFFDLIKKHFGNKALNPEELFELYFNGFYYGSSHRYIEDNEPAQNNLFSKVLENNKLLNPERSYGIDGFSNNVINALKSHKVLGLVYTTPLRYRHIISMWGADIDQDGKVKAIYVTDSDDREITFNDNSKRRIGMIRYDVLVDDNGNIRFTGKGATHKEEGAIYAGLYSLSRGDEVWEDYFKKYPEVQENL | 43.3 nM | 0.753 nM
FP14 (Fc fusion) DKTHTCPPCPAPEAAGAPSVFLFPPKPKDTLMISRTPEVTCVVVDVSHEDPEVKFNWYVDGVEVHNAKTKPREEQQNSTYRVVSVLTVLHQDWLNGKEYKCKVSNKALKAPIEKTISKAKGQPREPQVYTLPPSRDELTKNQVSLTCLVKGFYPSDIAVEWESNGQPENNYKTTPPVLDSDGSFFLYSKLTVDKSRWQQGNVFSCSVMHEALHNHYTQKSLSLSPGGGGSGGGGSGGGGSTALGRRKAEDRIKETLWADGVKIDEKDFEHIKSSHEDYFAVEYGKGSGYYDVNKKMDSEDTALCVGAVVTNMFHWWVDQNRENIEKFKKQDPENNGVMKFEGVKEATVDELNHFYRDNRDNYADQSRFFDLIKKHFGNKALNPEELFELYFNGFYYGSSHRYIEDNEPAQNNLFSKVLENNKLLNPERSYGIDGFSNNVINALKSHKVLGLVYTTPLTYRHIISMWGADIDQDGKVKAIYVTDSDDREITFNDNSKRRIGMIRYDVLVDDNGNIRFTGKGATHKEEGAIYAGLYSLSRGDEVWEDYFKKYPEVQENL | 31.9 nM | –
FP15 (Fc fusion) DKTHTCPPCPAPEAAGAPSVFLFPPKPKDTLMISRTPEVTCVVVDVSHEDPEVKFNWYVDGVEVHNAKTKPREEQQNSTYRVVSVLTVLHQDWLNGKEYKCKVSNKALKAPIEKTISKAKGQPREPQVYTLPPSRDELTKNQVSLTCLVKGFYPSDIAVEWESNGQPENNYKTTPPVLDSDGSFFLYSKLTVDKSRWQQGNVFSCSVMHEALHNHYTQKSLSLSPGGGGSGGGGSGGGGSTALGRRKAEDRIKETLWADGVKIDEKDFEHIKSSHEDYFAVEYGKGSGYYDVNKKMDSEDSALCVGAVVTNMFHWWVDQNRENIEKFKKQDPENNGVMKFEGVKEATVDELNHFYRDNRDNYADQSRFFDLIKKHFGNKALNPEELFELYFNGFYYGSSHRYIEDNEPAQNNLFSKVLENNKLLNPERSYGIDGFSNNVINALKSHKVLGLVHTTPLTYRHIISMWGADIDQDGKVKAIYVTDSDDREITFNDNSKRRIGMIRYDVLVDDNGNIRFTGKGATHKEEGAIYAGLYSLSRGDEVWEDYFKKYPEVQENL | 54.7 nM | –
